Measurements: patent US10683329B2, “Dual-site BACE1 inhibitors” (priority 2014, dated 2020)
*1 amine or outer side, *2 acyl side, *3 side chain or, on linkers, in order; H or OH if unused. Where no end group is shown, it is not given here. [ ]: non-standard residue; d: D form. The star is where a group is joined. Chol‑27‑TFA‑ester = succinamic acid (3S,8S,9S,10R,13R,14S,17R)-17-[(1R,5R)-1,5-dimethyl-6-(2,2,2-trifluoro-acetoxy)-hexyl]-10,13-dimethyl-2,3,4,7,8,9,10,11,12,13,14,15,16,17-tetradecahydro-1H-cyclopenta[a]phenanthren-3-yl ester, C[C@H](CCC[C@@H](C)[C@H]1CC[C@H]2[C@@H]3CC=C4C[C@@H](OC(=O)CCC(=O)*)CC[C@]4(C)[C@H]3CC[C@]12C)COC(=O)C(F)(F)F; MetSta(3S,4S) = CSCC[C@H](N[*:1])[C@@H](O)CC(=O)[*:2]; Sta = CC(C)C[C@H](N)[C@@H](O)CC(=O)O; 27‑OH‑Chol = 27-hydroxycholesterol; PEG4 = NCCOCCOCCOCCOCCC(=O)O; Lauroyl = CCCCCCCCCCCC(=O)*; PEG3 = NCCOCCOCCOCCC(=O)O; Aun = NCCCCCCCCCCC(=O)O; Ahx = NCCCCCC(=O)O

Biological target: BACE1 enzyme (UniProt P56817 46-501, limits assumed)
Experiment: cell-based or functional assay

BACE1 enzyme, sequence (P56817 46-501 limits assumed): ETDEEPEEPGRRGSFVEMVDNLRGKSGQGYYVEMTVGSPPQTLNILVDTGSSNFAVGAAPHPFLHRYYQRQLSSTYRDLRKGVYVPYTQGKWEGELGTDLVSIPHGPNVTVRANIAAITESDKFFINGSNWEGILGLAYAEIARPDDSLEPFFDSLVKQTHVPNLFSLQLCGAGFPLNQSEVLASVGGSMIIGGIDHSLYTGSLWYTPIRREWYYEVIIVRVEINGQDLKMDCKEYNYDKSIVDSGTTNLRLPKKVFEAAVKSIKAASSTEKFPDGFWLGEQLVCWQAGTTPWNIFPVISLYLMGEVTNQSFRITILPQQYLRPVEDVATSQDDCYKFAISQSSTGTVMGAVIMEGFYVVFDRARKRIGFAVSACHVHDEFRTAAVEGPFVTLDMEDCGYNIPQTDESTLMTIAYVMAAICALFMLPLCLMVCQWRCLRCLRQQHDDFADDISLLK

Row | Binder | IC50, cellular Aβ-lowering assay (Aβ40 in supernatant of HEK293 cells expressing human APP695) [nM]
1 | LIYFPYPGGGGEVN[Sta]VAE[dP]K(Chol)-NH2 (also: x TFA salt) [Leu-Ile-Tyr-Phe-Pro-Tyr-Pro-Gly-Gly-Gly-Gly-Glu-Val-Asn-Sta-Val-Ala-Glu-DPro-Lys(Chol)-NH2 x TFA] | 0.28
2 | YPYFIPLGGGEVN[Sta]DAE[dP]K(Chol)-NH2 (also: x TFA salt) [Tyr-Pro-Tyr-Phe-Ile-Pro-Leu-Gly-Gly-Gly-Glu-Val-Asn-Sta-Asp-Ala-Glu-DPro-Lys(Chol)-NH2 x TFA] | 18
3 | YPYFIKLG[dK]GEVN[Sta]VAE[dP]K(Chol)-NH2 (also: x 3TFA salt) [Tyr-Pro-Tyr-Phe-Ile-Lys-Leu-Gly-DLys-Gly-Glu-Val-Asn-Sta-Val-Ala-Glu-DPro-Lys(Chol)-NH2 x 3TFA] | 0.0176
4 | YPYFIPLGGGEVN[MetSta(3S,4S)]VAE[dF]K(C14)-NH2 (also: x TFA salt) [Tyr-Pro-Tyr-Phe-Ile-Pro-Leu-Gly-Gly-Gly-Glu-Val-Asn-MetSta-Val-Ala-Glu-DPhe-Lys(C14)-NH2 x TFA] | 1260
5 | LIYFPYPGGGEVN[Sta]VAE[dP]K(Chol)-NH2 (also: x TFA salt) [Leu-Ile-Tyr-Phe-Pro-Tyr-Pro-Gly-Gly-Gly-Glu-Val-Asn-Sta-Val-Ala-Glu-DPro-Lys(Chol)-NH2 x TFA] | 0.22
6 | YPYFIPLGGGEVN[Sta]VAE[dP]K(Chol'ether')-NH2 (also: x TFA salt) [Tyr-Pro-Tyr-Phe-Ile-Pro-Leu-Gly-Gly-Gly-Glu-Val-Asn-Sta-Val-Ala-Glu-DPro-Lys(Chol'ether')-NH2 x TFA] | 0.0264
7 | YPYFIPLGGGEVN[Sta]VAE[dP]K(Chol‑27‑TFA‑ester)-NH2 (also: x TFA salt) | 5.2
8 | YPYFIPLG[dK]GEVN[Sta]VAE[dP]K(Chol'ester')-NH2 (also: x 2TFA salt) | 0.025
9 | YPYFIPLGGGGEVNXVAEFK (MetSta at 15; DPhe at 19; Lys(Chol) at 20; C-terminal NH2) [Tyr-Pro-Tyr-Phe-Ile-Pro-Leu-Gly-Gly-Gly-Gly-Glu-Val-Asn-MetSta-Val-Ala-Glu-DPhe-Lys(Chol)-NH2 x TFA] | 0.052
10 | YPYFIPLGGKEVN[Sta]VAE[dP]K(Chol)-NH2 (also: 2TFA salt) [Tyr-Pro-Tyr-Phe-Ile-Pro-Leu-Gly-Gly-Lys-Glu-Val-Asn-Sta-Val-Ala-Glu-DPro-Lys(Chol)-NH2 x 2TFA] | 0.0771
11 | YPYFIPL[PEG3]EVN[MetSta(3S,4S)]VAE[dF]K(Chol)-NH2 (also: TFA salt) [Tyr-Pro-Tyr-Phe-Ile-Pro-Leu-PEG(3)-Glu-Val-Asn-MetSta-Val-Ala-Glu-DPhe-Lys(Chol)-NH2 x TFA] | 0.036
12 | YPYFIPL[dK]GGEVN[Sta]VAE[dP]K(Chol)-NH2 (also: x 2TFA salt) [Tyr-Pro-Tyr-Phe-Ile-Pro-Leu-DLys-Gly-Gly-Glu-Val-Asn-Sta-Val-Ala-Glu-DPro-Lys(Chol)-NH2 x 2TFA] | 0.177
13 | Ac-YPYFIPL[PEG4]EVN[Sta]VAE[dP]K(Chol)-NH2 [Ac-Tyr-Pro-Tyr-Phe-Ile-Pro-Leu-PEG(4)-Glu-Val-Asn-Sta-Val-Ala-Glu-DPro-Lys(Chol)-NH2] | 0.041
14 | YPKFKPLG[dK]GEVN[Sta]VAE[dP]K(Chol)-NH2 (also: x 4TFA salt) [Tyr-Pro-Lys-Phe-Lys-Pro-Leu-Gly-DLys-Gly-Glu-Val-Asn-Sta-Val-Ala-Glu-DPro-Lys(Chol)-NH2 x 4TFA] | 0.0218
15 | YPYFIKL[PEG4]EVN[Sta]VAE[dP]K(Chol)-NH2 (numbers in words are those of the source; also: x 2TFA salt) [Tyr-Pro-Tyr-Phe-Ile-Lys-Leu-PEG(4)-Glu-Val-Asn-Sta-Val-Ala-Glu-DPro-Lys(Chol)-NH2 x 2TFA] | 0.0228
16 | YPYFIPLGGGEVN[Sta]VAEFK(Chol)-NH2 (also: x TFA salt) [Tyr-Pro-Tyr-Phe-Ile-Pro-Leu-Gly-Gly-Gly-Glu-Val-Asn-Sta-Val-Ala-Glu-Phe-Lys(Chol)-NH2 x TFA] | 0.19
17 | YPYFIPLGGGGGEVNXVAEFK (MetSta at 16; DPhe at 20; Lys(Chol) at 21; C-terminal NH2) | 0.07
18 | YPYFIPLGGGGGGEVN[Sta]VAE[dP]K(Chol)-NH2 (also: TFA salt) | 0.028
19 | YPKFIPLG[dK]GEVN[Sta]VAE[dP]K(Chol'ether')-NH2 (also: x 3TFA salt) | 0.00828
20 | YPYFKPL[PEG4]EVN[Sta]VAE[dP]K(Chol)-NH2 (numbers in words are those of the source; also: 2TFA salt) [Tyr-Pro-Tyr-Phe-Lys-Pro-Leu-PEG(4)-Glu-Val-Asn-Sta-Val-Ala-Glu-DPro-Lys(Chol)-NH2 x 2TFA] | 0.0235
21 | YPYFIPLGGGEVN[Sta]VAE[dP]K(Chol)-NH2 (also: x TFA salt) [Tyr-Pro-Tyr-Phe-Ile-Pro-Leu-Gly-Gly-Gly-Glu-Val-Asn-Sta-Val-Ala-Glu-DPro-Lys(Chol)-NH2 x TFA] | 0.027

Row | Binder | IC50, cellular Aβ-lowering assay (Aβ40 in supernatant of HEK293 cells expressing human APP695) [nM]
22 | YPKFIPLG[dK]GEVN[Sta]VAE[dP]K(Chol)-NH2 (also: x 3TFA salt) [Tyr-Pro-Lys-Phe-Ile-Pro-Leu-Gly-DLys-Gly-Glu-Val-Asn-Sta-Val-Ala-Glu-DPro-Lys(Chol)-NH2 x 3TFA] | 0.0203
23 | YPYFIPLGKGEVN[Sta]VAE[dP]K(Chol)-NH2 (also: 2TFA salt) [Tyr-Pro-Tyr-Phe-Ile-Pro-Leu-Gly-Lys-Gly-Glu-Val-Asn-Sta-Val-Ala-Glu-DPro-Lys(Chol)-NH2 x 2TFA] | 0.0295
24 | YPYFIKLGGGEVN[Sta]VAE[dP]K(Chol)-NH2 (also: x 2TFA salt) [Tyr-Pro-Tyr-Phe-Ile-Lys-Leu-Gly-Gly-Gly-Glu-Val-Asn-Sta-Val-Ala-Glu-DPro-Lys(Chol)-NH2 x 2TFA] | 0.0117
25 | YPYFIPLGGGEVNLAAE[dP]K(Chol)-NH2 (also: Leu14*Ala15 Tang hydroxyethylene dipeptide isostere, trifluoroacetate salt) [Tyr-Pro-Tyr-Phe-Ile-Pro-Leu-Gly-Gly-Gly-Glu-Val-Asn-Leu*Ala-Ala-Glu-DPro-Lys(Chol)-NH2 x TFA] | 0.0024
26 | YPYFIPL[PEG4]EVN[Sta]VAE[dP]K(Chol)-NH2 (also: TFA salt) [Tyr-Pro-Tyr-Phe-Ile-Pro-Leu-PEG(4)-Glu-Val-Asn-Sta-Val-Ala-Glu-DPro-Lys(Chol)-NH2 x TFA] | 0.027
27 | KPYFIPLG[dK]GEVN[Sta]VAE[dP]K(Chol'ester')-NH2 (also: x 3TFA salt) | 0.02
28 | YPYFKPLG[dK]GEVN[Sta]VAE[dP]K(Chol)-NH2 (also: 3TFA salt) [Tyr-Pro-Tyr-Phe-Lys-Pro-Leu-Gly-DLys-Gly-Glu-Val-Asn-Sta-Val-Ala-Glu-DPro-Lys(Chol)-NH2 x 3TFA] | 0.0263
29 | YPYFIPL[PEG3]EVN[Sta]VAE[dP]K(Chol)-NH2 (also: TFA salt) [Tyr-Pro-Tyr-Phe-Ile-Pro-Leu-PEG(3)-Glu-Val-Asn-Sta-Val-Ala-Glu-DPro-Lys(Chol)-NH2 x TFA] | 0.043
30 | YPYFIPLGGEVN[Sta]VAE[dP]K(Chol)-NH2 (also: x TFA salt) [Tyr-Pro-Tyr-Phe-Ile-Pro-Leu-Gly-Gly-Glu-Val-Asn-Sta-Val-Ala-Glu-DPro-Lys(Chol)-NH2 x TFA] | 0.27
31 | YPYFIPLGG[dK]EVN[Sta]VAE[dP]K(Chol)-NH2 (also: x 2TFA salt) [Tyr-Pro-Tyr-Phe-Ile-Pro-Leu-Gly-Gly-DLys-Glu-Val-Asn-Sta-Val-Ala-Glu-DPro-Lys(Chol)-NH2 x 2TFA] | 0.118
32 | YPYFIPLGGGEVN[Sta]VAE[dP]K(C14)-NH2 (also: x TFA salt) [Tyr-Pro-Tyr-Phe-Ile-Pro-Leu-Gly-Gly-Gly-Glu-Val-Asn-Sta-Val-Ala-Glu-DPro-Lys(C14)-NH2 x TFA] | 140
33 | YPYFIPL[Ahx]EVN[Sta]VAE[dP]K(Chol)-NH2 (also: TFA salt) [Tyr-Pro-Tyr-Phe-Ile-Pro-Leu-NH(CH2)5CO-Glu-Val-Asn-Sta-Val-Ala-Glu-DPro-Lys(Chol)-NH2 x TFA] | 0.075
34 | YPYFIPLGGGEVN[Sta]VAE[dP]K(27‑OH‑Chol)-NH2 (also: x TFA salt) [Tyr-Pro-Tyr-Phe-Ile-Pro-Leu-Gly-Gly-Gly-Glu-Val-Asn-Sta-Val-Ala-Glu-DPro-Lys(27-OH-Chol)-NH2 x TFA] | 6.3
35 | YPKFIPLGGGEVN[Sta]VAE[dP]K(Chol)-NH2 (also: x 2TFA salt) [Tyr-Pro-Lys-Phe-Ile-Pro-Leu-Gly-Gly-Gly-Glu-Val-Asn-Sta-Val-Ala-Glu-DPro-Lys(Chol)-NH2 x 2TFA] | 0.0135
36 | YPYFIPLKGGEVN[Sta]VAE[dP]K(Chol)-NH2 (also: 2TFA salt) [Tyr-Pro-Tyr-Phe-Ile-Pro-Leu-Lys-Gly-Gly-Glu-Val-Asn-Sta-Val-Ala-Glu-DPro-Lys(Chol)-NH2 x 2TFA] | 0.0235
37 | YPYFIPL[PEG4]EVN[MetSta(3S,4S)]VAE[dF]K(Chol)-NH2 (also: TFA salt) [Tyr-Pro-Tyr-Phe-Ile-Pro-Leu-PEG(4)-Glu-Val-Asn-MetSta-Val-Ala-Glu-DPhe-Lys(Chol)-NH2 x TFA] | 0.018
38 | YPYFIPLGGGEVN[Sta]VAE[dP]K(Lauroyl)-NH2 (also: x TFA salt) [Tyr-Pro-Tyr-Phe-Ile-Pro-Leu-Gly-Gly-Gly-Glu-Val-Asn-Sta-Val-Ala-Glu-DPro-Lys(C12)-NH2 x TFA] | 450
39 | YPYFIPL[Aun]EVN[Sta]VAE[dP]K(Chol)-NH2 (also: TFA salt) [Tyr-Pro-Tyr-Phe-Ile-Pro-Leu-NH(CH2)10CO-Glu-Val-Asn-Sta-Val-Ala-Glu-DPro-Lys(Chol)-NH2 x TFA] | 0.36
40 | Ac-YPYFIPLGGGEVN[Sta]VAE[dP]K(Chol)-NH2 (also: x TFA salt) [Ac-Tyr-Pro-Tyr-Phe-Ile-Pro-Leu-Gly-Gly-Gly-Glu-Val-Asn-Sta-Val-Ala-Glu-DPro-Lys(Chol)-NH2] | 0.017
41 | YPYFKPLGGGEVN[Sta]VAE[dP]K(Chol)-NH2 (also: 2TFA salt) [Tyr-Pro-Tyr-Phe-Lys-Pro-Leu-Gly-Gly-Gly-Glu-Val-Asn-Sta-Val-Ala-Glu-DPro-Lys(Chol)-NH2 x 2TFA] | 0.00732
